We go through eight molecules from patent US20250346651A1 (EMORY UNIVERSITY, published 2025).

Assay [1] addresses T1, recombinant MBP-E2 fusion protein (Human papillomavirus type 16, UniProt P03120 1-365, limits assumed).
T1 construct: The legend says only 'MBP-E2'
T1 sequence: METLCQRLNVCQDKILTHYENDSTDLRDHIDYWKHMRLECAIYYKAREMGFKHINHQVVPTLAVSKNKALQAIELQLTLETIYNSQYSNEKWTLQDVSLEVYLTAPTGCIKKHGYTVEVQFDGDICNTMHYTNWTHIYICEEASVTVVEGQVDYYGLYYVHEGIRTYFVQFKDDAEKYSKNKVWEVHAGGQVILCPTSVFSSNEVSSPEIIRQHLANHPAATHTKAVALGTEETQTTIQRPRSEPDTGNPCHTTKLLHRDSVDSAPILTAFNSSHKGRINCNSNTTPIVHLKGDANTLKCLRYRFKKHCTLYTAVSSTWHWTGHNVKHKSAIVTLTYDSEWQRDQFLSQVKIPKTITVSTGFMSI
As to the kind of experiment: ELISA, plate coated with MBP-E2, purified antibody. (In general: In an ELISA, binding on a coated surface is turned into a signal by an enzyme label.)
Procedure: ELISA plates coated with recombinant MBP-E2 fusion protein were incubated with purified human monoclonal antibodies.

In assay [2] the target is T2, recombinant MBP-E6 fusion protein (Human papillomavirus type 16, UniProt P03126 1-158).
T2 construct: The legend says only 'MBP-E6'
T2 sequence (P03126 whole entry, the tested form may be a part): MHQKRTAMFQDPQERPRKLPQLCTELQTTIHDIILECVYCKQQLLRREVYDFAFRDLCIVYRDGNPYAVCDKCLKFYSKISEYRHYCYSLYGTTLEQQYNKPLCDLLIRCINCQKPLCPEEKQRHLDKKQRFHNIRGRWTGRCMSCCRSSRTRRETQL
As to the kind of experiment: ELISA, plate coated with MBP-E6, purified antibody.
Procedure: ELISA plates coated with recombinant MBP-E6 fusion protein were incubated with purified human monoclonal antibodies.

B1: 22-E2G5 (antibody, V domains shown)
VH: EVQVVESGGGLVQPGGSLRLSCAASGFTVNSKFMTWVRQAPGTGLECVSIIYNDGSTYYADSVKGRFTISRDNSKNTLYLQMNRLRPEDTAVYFCARRAFFGGNDDFDIWGQGTLVTVSS
VL: EIVLTQSPGTLSLSPGDRATLSCRAGQSVSSSFLAWYQQRPGQPPRLLIYGASSRATDIPDRFSGSGSGTDFTLTISRLEPEDFAVYYCHQYSSSLPTFGPGTKVEIK
As for B1, the binding result in assay [1] is given as “binds”.

B2: 22-1B10 (antibody, V domains shown)
VH: QVQLVQSGSELRKPGASVTVSCKASGYTFSNHDMSWVRQAPGQGLEWMGWINSNTGNPTYAQGFTGRFVFSLDTSVSTAYLQISSLKSEDTAVYYCAKGGGICSGSRCYSGWFDSWGKGTLVAVSS
VL: QLVLTQSPSASASLGASVKLTCTLSSGHSGYAIAWHQQQPEKGPRYLMKLNSDGTHTKGDGIPDRFSGSSSGAERYLTISSLQSEDEADYYCQTWGTGIQVFGTGTKVTILG
For the molecule B2, in assay [1], the binding result was “binds”.

B3: 22-E2B2 (antibody, V domains shown)
VH: QVQLVQSGTEVKKPGASVRVSCKASGYTFTEYYLHWVRQAPGQGLEWMGRINPNSGNTNYAQKFNGRVTMTSDTSVNLAYLEVSGLTSDDTAIYYCTRDDSGAFVYWGQGTLVTVSS
VL: ETVLTQSPATLSLSPGERATLSCRSSQVISSYLAWFQQKPGQAPRLLIYDTSNRATGIPARFSGSGSGTDFTLTISSLEPEDFAVYYCQQRTNWPPREKITFGPGTKVDIK
As for B3, the binding result in assay [1] is “binds”.

B4: 22-E2F7 (antibody, V domains shown)
VH: QVQLVQSGTEVKKPGASVRVSCKASGYSFTEYYLHWVRQAPGQGLEWMGRINPKSGNTNYAQKLNGRVTMTSDTSVNVAYLEVSGLTSDDTAIYYCTRDDNGAFVYWGQGTLVTVSS
VL: ETVLTQSPATLSLSPGERATLSCRSSQVISSYLAWFQQKPGQAPRLLIYDTSNRATGIPARFSGSGSGTDFTLTISSLEPEDFAVYYCQQRINWPPREKITFGPGTKVDIR
As to B4, in assay [1], the binding result is recorded as “binds”.

B5: 21-1E2 (antibody, V domains shown)
VH: DVQLAESGGGLVQPGDSLTLSCAASGFIFNNYFMSWVRQTPGKGLEWVSGISANGERSIYADSVKGRFTISRDNSKKTVSLQMNSLSAEDTAIYYCARAGCDSTSCYARVGWFGPWGQGILVTVSS
VL: DVVMTQSPDSLAVSLGERATLNCKSRESVLYTTNNRNYLAWYQQKPGQPPKLLIYWASTRESGVPDRFSGSGSGTDFSLTISSLQAEDVAVYYCQQYLTTPPTFGQGTKVEIK
B5: the binding result in assay [2] is “binds”.

B6: 21-1H3 (antibody, V domains shown)
VH: QVQLVQSGAEVKKPGSSVKVSCKASGGTFANSGVAWVRQAPGQGLEWMGGLIPVFGAADYAQKFRGRLSITADESSTTAFMELDSLRSDDTAVYYCAKDHFTYNKYFSWFDPWGQGTLVIVSS
VL: QTVVTQEPSLSVSPGGTVTLTCALSSGSVSTSYYPSWYQQTPGQAPRTLIYSTNLRSSGVPDRFSGSILGNKAALTITGAQADDECDYYCVLFMGSGISMFGGGTKLTVL
In the case of B6, in assay [2], the binding result is “binds”.

B7: 22-E2C5 (antibody, V domains shown)
VH: QVQLVQSGAEVKKPGASVKVSCRTSGYSFTRYYIHWVRQSPGRGLEWMGIIDPNNGGTTSAKTLLGKVSMTRDTSTSTAHLELTSLGPEDTAVYYCAILYSNGLEVWDYWGQGTLVTVSS
VL: SHELTQPPSVSVSPGQTAQITCSGDTLPDNYAYWYQQRSGQAPVLVVYEDNKRPSGIPERFSGSSSGTMATLTISGAQVEDDADYYCYSSDRSNNFFGGGTKLTVLS
As for B7, in assay [1], the binding result is recorded as “binds”.

B8: 22-E2D4 (antibody, V domains shown)
VH: QVQLVQSGAEVKRPGSSVKVSCKASGDNFNNYAFHWVRQAPGQGLEWMGRTIPFLGLTSYSPNIQGRVSISADKSTATAFMEMSGLRSEDTAMYYCASSIRLGDFLYRASYYYSSPLDVWGQGTTVTVSS
VL: EVVLTQSPGTLSLSPGDRATLTCRAGQTISNSYLAWYQQKPGQAPRLLISGVSSRATGIPDRFSGSGSGTDFTLTISRLEPEDFAVYYCQLYGNSPSFGQGTRLEIK
Take B8: the binding result in assay [1] is “binds”.
